This test deals with T1, mouse IFNα4 without tag (Mus musculus, UniProt P07351).
T1 construct: Expressed with an N-terminal mouse IgG signal peptide (HVM06_MOUSE) and a C-terminal TEV site before the tags; Produced in a glycosylation deficient cell line; also called Interferon α; not shown: Twin-Strep-tag, C-terminal, cleaved; His8, C-terminal, cleaved
The test can be described thus: BLI; Octet Red96; αIFNα-ab covalently coupled (EDC/NHS) to Ni-NTA tips, increasing concentrations of IFNα4 in solution; kinetic buffer 0.2% BSA in PBS with 0.05% Tween 20; association 800 s, dissociation 1800 s; 1:1 interaction model. The following applies: both partners purified. (BLI is a label-free optical method that tracks binding on a fibre tip over time.)

T1 sequence (P07351 25-186): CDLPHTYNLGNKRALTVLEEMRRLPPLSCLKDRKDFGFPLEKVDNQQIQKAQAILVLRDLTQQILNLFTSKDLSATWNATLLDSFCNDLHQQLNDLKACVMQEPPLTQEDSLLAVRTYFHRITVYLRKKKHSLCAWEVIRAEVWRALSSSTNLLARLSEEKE

B1: soluble scFv αIFNα-ab (scFv, V domains shown)
VH: EVQLVESGGGLVRPGGSLKLSCTASGFTFSDFDMAWVRQAPTRGLEWVASISSGPANTHYRGSVRGRFTGSRNDAKSTLYLQMDSLRSEDTATYYCARPFGSGYYFDYWGQGVVVTVSS
VL: DTVLTQSPALAVSLGQRVTISCKASESVSSSTSNYMHWYQQKPGQRPKLLIYLASNLESGVPARFSGSGSGTDFILNIDPVEADDVATYFCQQSWNDPPTFGSGTKVELK
notes: VH of the rat anti-mouse IFNα hybridoma antibody 4EA1; linker, printed as (GGGGS)3; VL (kappa) of the rat anti-mouse IFNα hybridoma antibody 4EA1; Order VH-(GGGGS)3-VL; made with a signal peptide (secreted); also called anti-IFNα scFv; soluble form of the intrabody; not shown: His6, C-terminal, kept
A word on the Kd: it is the free concentration of one partner at which half of the binding sites on the other are occupied at equilibrium, for simple one-to-one binding. Broadly, the koff is a measure of how fast the partners let go of each other. By kon is commonly meant the rate constant with which the complex forms. A low value points to slow association. Consider B1, for which the Kd worked out at 38.6 nM, the dissociation rate constant (koff) turned out to be 0.00023 s⁻¹ and the association rate constant (kon) was found to be 5970 M⁻¹ s⁻¹.

The record behind these values is PMC6467385, “ER intrabody-mediated inhibition of interferon α secretion by mouse macrophages and dendritic cells” (PLoS ONE, 2019).
